Earlier results on one substance are cited in publication PMC2775957.

A word on the Kd: it is the constant that tells how readily two partners part at equilibrium.

The target of one data set is TEM8 (Homo sapiens) (UniProt Q9H6X2).
Another data set addresses CMG2 (Homo sapiens) (UniProt P58335).

Turning to “Protective antigen (from UniProt P13423)”, the Kd in the data set with TEM8 (Homo sapiens) was 10 nM; with CMG2 (Homo sapiens), 1 nM.
